Measured values from paper PMC12090727, “Cell binding, uptake, and infection of influenza A virus using recombinant antibody-based receptors” (Journal of Virology, 2025).

B1: fTfR-5J8 chimeric antibody-based receptor, stably expressed on A549 Slc35A1 KO cells (scFv, V domains shown)
VH: EVQLVESGPGLVKPSDILSLTCAVSGYSISSNYYWGWIRQPPGKGLEWIGSIYHSGSTYYKPSLESRLGISVDTSKNQFSLKLSFVSAADTAVYYCARHVRSGYPDTAYYFDKWGQGTLVTVSS
VL: SYVLTQPPSVSVAPGETARISCGGNNIGTKVLHWYQQTPGQAPVLVVYDDSDRPSGIPERFSGSNSGNTATLTISRVEVGDEADYYCQVWDISTDQAVFGGGTKLTVL
notes: also called LV-fTfR-5J8; LV-5J8-TfR
B2: Flag-tagged fTfR-5J8 receptor, WT (Flag+) (scFv, V domains shown)
VH: B1 VH
VL: B1 VL
notes: also called WT receptor

Legend:
[1] = target: T1, hemagglutinin (HA) of A/Netherlands/602/2009 (pH1N1), on virions (Influenza A virus …, UniProt C3PSV2); experiment: flow cytometry on cells; conditions: partners not purified
T1 construct: also called A/Netherlands/602/09; A/Neth/09

[2] = target: T2, HA-hFc probe: H1N1 A/California/04/2009 HA ectodomain fused to human IgG1 Fc (Influenza A virus A/California/04/2009 …, UniProt C3W5S1); experiment: flow cytometry on cells; conditions: one partner purified
T2 construct: also called HA-probe; HA-human Fc probe; source: High Five insect cells (recombinant baculovirus), purified (HiTrap Protein G); not shown: Fc (human IgG1), C-terminal, kept

| Binder | binding result [1] | binding result [2] |
| --- | --- | --- |
| B1 | binds | – |
| B2 | – | binds |
